From patent publication US20150377889A1, “GALECTIN-3 AS A MARKER FOR PROSTATE CANCER” (Wayne State University, priority 2013, published 2015)

Assays:
[1] = test system: co-cultured BAMEC and LNCaP cells; test: Three-dimensional growth and tube formation assay, BAMEC/LNCaP co-culture on […]; type: cell-based, bovine, human
Description: Three-dimensional Growth and Tube Formation Assay. To analyze in vitro angiogenesis and interactions between epithelial and endothelial cell formation of tubular networks by co-cultured BAMEC and LNCaP cells, a three-dimensional growth and tube formation assay was performed. Briefly, […]® (10 μl) was added to each chamber of the slide (μ-Slide, ibidi, Martinsried, Germany) and gelled by a 30-min incubation at room temperature, after which 15,000 BAMEC and 5000 LNCaP cells were plated onto the gel in 50 μl of Eagle's minimal essential complete medium. In some chambers, full-length galectin-3 or its fragments were added. After 36 hr, three-dimensional structures were observed under phase contrast microscope and photographed. Images were acquired with an Olympus IX71 microscope supporting a Hamamatsu ORCA-ER video camera. Tube formation image analysis was done using the web-based Image Analysis Win-Tube module of Wimasis online software.
Three-dimensional heterotypic co-cultures of epithelial (LNCaP) and endothelial (BAMEC) cells were performed on […]® to study tube formation in the presence of 10 μg/ml galectin-3 and its fragments. […] FIG. 2B presents a quantitative evaluation of the tube formation assay.

[2] = test system: LNCaP, Du145, and PC3M cell lines; test: Wound-healing (scratch) assay; type: cell-based, human; conditions: 24 hr, compared with the control
Description: Wound-healing Assay. A wound-healing assay, the scratch assay, was performed according to the protocol published in Liang, et al. (2007), Nat. Protoc. 2, 329-333. Briefly, in this scratch assay 60-mm dishes were coated with ECM and incubated overnight, unbound ECM was removed and the dishes were blocked with bovine serum albumin. Subconfluent growing cells were resuspended in a tissue culture dish by washing cells with PBS, adding versene containing trypsin, and mixing cells with medium containing serum. Cells were then plated onto the prepared 60-mm dish to create a confluent monolayer, and incubated for 6 hr at 37° C.
The cell lines LNCaP (null galectin-3), DU145 (stable clone with reduced galectin-3 expression), and PC3M were used to examine the effect of full-length galectin-3, galectin-3 1-107, and galectin-3 108-250 on prostate cancer cell motility using the scratch assay. The assay was performed with LNCaP, Du145, and PC3M cultured cell lines stimulated by full-length galectin-3, and fragments galectin-3 1-107 and 108-250. A uniform wound was made in each plate using a 1-μl pipette tip. The wound area was observed immediately, then at 24 hr after creation the cells were counted. Cells were grown under identical conditions.

B1: galectin-3 1-107: recombinant fragment 1-107 of human galectin-3 (SEQ ID NO:2), NH2-terminal domain with collagen-like sequence (protein, listed as Homo sapiens)
chain: MADNFSLHDALSGSGNPNPQGWPGAWGNQPAGAGGYPGASYPGAYPGQAPPGAYPGQAPPGAYPGAPGAYPGAPAPGVYPGPPSGPGAYPSSGQPSATGAYPATGPY
tube formation: loops ([1]; 10 μg/ml protein added to medium, 36 hr, control 0): 0
branching morphogenesis of endothelial cells ([1]; 10 μg/ml protein, BAMEC/LNCaP co-culture): failed to do so
prostate cancer cell motility [2]: did not show a significant increase in motility
